Data from the supplement of paper PMC9170038.

What was measured:
MS2 coat protein [1] = assay: apparent KD of MS2 coat protein; designed switch direction (-1 OFF switch, 1 ON switch): -1; higher = weaker reporter binding; settings: Eterna round: R98
Protocol: (§1)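 RNA-MaP: designed FMN/MS2 RNA switches (84 nt design region) are transcribed on-chip within common flanks and titrated with SNAP-549-labelled MS2 coat protein (about 1-3000 nM) in 100 mM Tris pH 7.5, 80 mM KCl, 4 mM MgCl2, without or with 200 uM FMN. Median apparent KD per design; activation ratio = KD,OFF / KD,ON.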

MS2 coat protein [2] = assay: apparent KD of MS2 coat protein; designed switch direction (-1 OFF switch, 1 ON switch): 1; higher = weaker reporter binding; settings: Eterna round: R98
Protocol: as §1

Sequence | apparent KD of MS2 coat protein (MS2 coat protein [1]; input ligand: FMN 200 uM) [nM] | apparent KD of MS2 coat protein (MS2 coat protein [1]; input ligand: none) [nM] | apparent KD of MS2 coat protein (MS2 coat protein [2]; input ligand: FMN 200 uM) [nM] | apparent KD of MS2 coat protein (MS2 coat protein [2]; input ligand: none) [nM]
AAAAUAUAGGCAGGAUAUACAUGAAUAUAUAAUAUAAUAUAUAAUAUAACAUGAGGAUCACCCAUGUAGAAGGGCCAUAAUAAA [LRO028_Exclusion NG 2] | 72.7 | 43.7 | – | –
AAAAUAAAGGCAGGAUAUACAUGAAUAAAUAAAAUAAAAUAAAAUAAAACAUGAGGAUCACCCAUGUAGAAGGGCCAAAAUAAA [LRO021_Exclusion NG 2] | 178 | 71.5 | – | –
AUGACAGGCAGAGCGCAACGGCGAACAUGAGGAUCACCCAUGUAGGAUAUGCUACACAAAGUGUAGCAGAAGGACAUGCGACGC [Ex NG2 #85] | 117 | 25.7 | – | –
CUGGUGAUGUAAGGAUAUGCUGAGGAAUACUCAGCAGAAGGUACAUGAGGAUCACCCAUGUAAAUGAAAGAUAAUAAACACCAG [Excusion NG 1/16-B1] | 29.1 | 14.5 | – | –
AAAACAUGAGGAUCACCCAUGUAAAGAUCGGUUAAUAAAAGUGAGGAUAUACAAAAUUUUAUAUAGUAGAAGGCACUGGGUACA [JR_SSNG3_Sub002] | – | – | 29.7 | 28.3
ACAUGGAAGCGAGGAUAUGCGGCGGAAACGAACGCAGAAGGCGAAAAAAAAACUCGCAAAAACAUGAGGAUCACCCAUGUAAAA [AK-NGROCr2-ExNG1-4] | 34.8 | 28.5 | – | –
GCCGUAAUAGCAGGAUAUGCUCCGGUUGCUCAUACAUGAGGAUCACCCAUGUCACGUGCGGUGGUGCAGAAGGGUUGAAGCGAU [Ausaso] | – | – | 122 | 465
GCCAUCGUAUGAGGAUAUGGCACCGUUUCGGUGCCAGAAGGCAUGUCUUUUGACAUGAGGAUCACCCAUGUAGUUAAGAUGGCA [Pyrimidine booster 4] | – | – | 147 | 637
GGUUGUUACGCAGGAUAUUGCCAACAGGCAGUAGGAUAUCCGAAAGGAGAAGGAUUGCCAACAGGCGAGAAGGGCGGGUUAACC [pwkr exNG2 2xF7 2FMN.10.6] | 50.6 | 33.3 | – | –
AUGCCGUGCAGAGCGCGACGGCGAACAUGAGGAUCACCCAUGUAGGAUAUACUACACAAAGUGUAGUAGAAGGACGUGCAACAA [Ex NG2 #97] | 38.1 | 29.8 | – | –
GCGUAAUUGAUCCUAUUUACCAACAUGAGGAUCACCCAUGUGCAGGAUAUGCUAAAGAUAGAUAAGCAGAAGGGCAAAUACCGC [JR_ExcNG3_Sub003] | 252 | 67 | – | –
GUAGCAUACCGAGGAUAUUCAUACCAUAAAUGGACAUGAGGAUCACCCAUGUGGCGAAAGCCUUGGGAGAAGGCGGAAUGCUAC [EliMod 3 - Jieux - Same State NG 2] | – | – | 25.2 | 673
AAGCAAACAUGAGGAUCACCCAUGUAACUGCUUUUGGCGACACAGGAUAUACAGCGACAUUGGCGGUAGAAGGGUGAUUGAAGU [Araisleen] | – | – | 51.1 | 22.2
GGUCCAUCAUGAGGAUAUGGCACCUUAUUUGUGCCAGAAGGCAUGUCAAUAGACAUGAGGAUCACCCAUGUAAUAAAUUGGACC [EliMod 3 - Jieux - Same State NG 1] | – | – | 54.1 | 642
UCGAAGAAGCAAGGAUAUCAAUAUUAGAAAAGAUAAACAUGAGGAUCACCCAUGUAAAUAUGGAGUGAGAAGGUGCAAUAAUUU [JR_SSNG2_Sub098] | – | – | 212 | 557
UUUACAUGAGGAUCACCCAUGUUUUGAAAGAUUGGUUUAGGUGAGGAUAUACAUGAUAAUGAAUUGUAGAAGGCACUGGGUACA [JR_SSNG3_Sub029] | – | – | 29.6 | 39.3
CAUGUCCACACAGGAUAUGCUGGACUUUGUCCAGCAGAAGGGUGAACAUGAGGAUCACCCAUGUAAAGGACAUGUAUAUUUAAU [Denovo 16] | – | – | 93.3 | 715
UAUAUAAUAAGAGCUGGAAAACUCACAUGAGGAUCACCCAUGUAGGAUAUCAGCACGAUAAGUGCUGAGAAGGACAACCAGCUC [Denovo 73] | 17 | 15.2 | – | –
GUAUGACAAAGUCAUACCGCUUUGACAUGAGGAUCACCCAUGUAGGAUAUAUUAAUCAAAGAUUAAUAGAAGGACAUGUUUCUG [Ex NG2 #68] | 175 | 94.6 | – | –
GGUCUGAUAUGAGGAUAUGCUCAGGAUAACUGAGCAGAAGGCAUGUGAAAACAUGAGGAUCACCCAUGUAUGAUCUACAGACCA [Same State NG1 - WT Aptamer 4D] | – | – | 22.7 | 55.6
GGAUGACAAAGUCAUCCUUAACGAACAUGAGGAUCACCCAUGUAGGAUAUGCUACACAAAGUGUAGCAGAAGGACAUGUGCCUU [Mat - Exclusion NG 3 - JL Mod - D88] | 294 | 32.9 | – | –
UUUGGGAGCACAGGAUAUGGCACCUCGACGGCGCCAGAAGGGUGAUUCUGUUGGUGGCCACAUGAGGAUCACCCAUGUGCCUCC [Inerinusce] | – | – | 44.7 | 76
